Experimental data: patent US20210032365A1 (Chugai, published 2021)
Where a chain is given by its changes, count along the chain named. Numbers in names are those of the source. Each block holds one binder with its values, some of them ahead of it.

What was measured:
human C1s [1] = molecular target: T1, human C1s (human, UniProt P09871 16-688); assay: SPR, Ab captured; pH 5.8, 3 uM Ca
T1 construct: also called hC1s; serum-derived human C1s (CompTech)
T1 sequence: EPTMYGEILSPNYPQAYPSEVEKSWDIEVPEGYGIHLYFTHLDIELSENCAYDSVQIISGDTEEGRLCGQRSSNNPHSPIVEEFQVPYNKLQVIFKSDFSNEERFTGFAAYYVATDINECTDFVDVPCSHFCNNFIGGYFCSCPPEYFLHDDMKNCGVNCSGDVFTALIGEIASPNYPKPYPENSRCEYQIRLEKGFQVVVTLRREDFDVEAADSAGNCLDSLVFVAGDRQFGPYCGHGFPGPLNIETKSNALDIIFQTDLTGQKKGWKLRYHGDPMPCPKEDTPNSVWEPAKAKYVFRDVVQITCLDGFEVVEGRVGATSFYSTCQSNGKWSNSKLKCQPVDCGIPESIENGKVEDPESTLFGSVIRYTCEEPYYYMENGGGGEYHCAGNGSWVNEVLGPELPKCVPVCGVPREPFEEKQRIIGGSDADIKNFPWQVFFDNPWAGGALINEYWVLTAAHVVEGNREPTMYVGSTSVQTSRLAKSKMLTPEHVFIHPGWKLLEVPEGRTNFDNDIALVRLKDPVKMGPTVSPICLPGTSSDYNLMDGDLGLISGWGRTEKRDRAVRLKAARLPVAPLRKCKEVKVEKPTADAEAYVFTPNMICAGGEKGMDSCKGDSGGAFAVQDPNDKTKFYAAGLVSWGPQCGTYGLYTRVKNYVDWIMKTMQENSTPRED
Procedure: (§1) All variants were transiently expressed and purified by the method described above. The binding affinity of each histidine-substituted variant at pH 7.4 and pH 5.8 was determined at 37 degrees C. using Biacore T200 instrument (GE Healthcare). Recombinant Protein A/G (Pierce) was immobilized onto all flow cells of a CM4 sensor chip using an amine coupling kit (GE Healthcare). Antibodies and analytes were prepared in 7(+) buffer (20 mM ACES, 150 mM NaCl, 1.2 mM CaCl2, 0.05% Tween 20, 0.005% NaN3, pH 7.4), 5(+) buffer (20 mM ACES, 150 mM NaCl, 1.2 mM CaCl2, 0.05% Tween 20, 0.005% NaN3, pH 5.8), or 5(−) buffer (20 mM ACES, 150 mM NaCl, 3 micro M CaCl2, 0.05% Tween 20, 0.005% NaN3, pH 5.8). Each antibody was captured onto the sensor surface by protein A/G. Antibody capture levels were aimed at 200 resonance unit (RU). Serum-derived human C1s (CompTech) or recombinant C1s prepared in EXAMPLE 1 was injected at 50 nM, followed by dissociation. The sensor surface was regenerated in each cycle with 10 mM Glycine-HCl, pH 1.5. […] The ratio of KD 5.8+ to KD 7.4+(“KD 5+/7+”) and that of KD 5.8− to KD 7.4+(“KD 5−/7+”) were calculated. When the KD 5+/7+ or KD 5−/7+ of a variant is larger than that of the parent antibody IPN009VH2-SG4GK/IPN009VK3-SK1, that variant is considered to be “pH”- or “pH and Ca”-dependent, respectively. When binding response in 5(+) buffer and/or in 5(−) buffer of a variant is much lower than that of IPN09VH2/IPN009VK3, that variant is also considered as “pH”- and/or “pH and Ca”-dependent. Therefore, such mutations are effective to generate “pH”- and/or “pH and Ca”-dependent antibody. To further enhance “pH” and/or “pH and Ca” dependency, a combination of histidine mutations was conducted. Antibodies with combinations of histidine mutations were evaluated using Biacore by the method described above.

human C1s [2] = molecular target: T1, human C1s; assay: SPR, Ab captured; pH 5.8, 3 uM Ca; remark: listed apart in the source
Procedure: as §1

human C1s [3] = molecular target: T1, human C1s; assay: SPR, Ab captured; pH 7.4, 1.2 mM Ca
How it was run: (§2)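 Antibody captured on protein A/G (~200 RU) on Biacore T200 at 37C; serum-derived or recombinant human C1s injected at 50 nM, then dissociation. KD measured at pH 7.4 with 1.2 mM Ca and at pH 5.8 with 1.2 mM or 3 uM Ca; KD ratios pH 5.8/pH 7.4 calculated.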

human C1s [4] = molecular target: T1, human C1s; assay: SPR, Ab captured; pH 7.4, 1.2 mM Ca; remark: listed apart in the source
Procedure: as §1

human C1s [5] = molecular target: T1, human C1s; assay: SPR; KD pH 5.8 1.2 mM Ca / KD pH 7.4 1.2 mM Ca
How it was run: (§3)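 KD values come from SPR at 37 °C with antibody held on immobilized protein A/G and 50 nM human C1s as analyte. Buffers differed only in pH (7.4 or 5.8) and CaCl2 (1.2 mM or 3 µM). Each pH 5.8 KD was divided by the pH 7.4, 1.2 mM Ca KD.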

human C1s [6] = molecular target: T1, human C1s; assay: SPR, Ab captured; pH 7.4, 1.2 mM Ca; remark: listed apart in the source
How it was run: as §3

human C1s [7] = molecular target: T1, human C1s; assay: SPR; KD pH 5.8 1.2 mM Ca / KD pH 7.4 1.2 mM Ca; remark: listed apart in the source
Procedure: as §1

human C1s [8] = molecular target: T1, human C1s; assay: SPR, Ab captured; pH 5.8, 1.2 mM Ca
How it was run: as §3

human C1s [9] = molecular target: T1, human C1s; assay: SPR; KD pH 5.8 3 uM Ca / KD pH 7.4 1.2 mM Ca
How it was run: as §3

human C1s [10] = molecular target: T1, human C1s; assay: SPR; KD pH 5.8 3 uM Ca / KD pH 7.4 1.2 mM Ca; remark: listed apart in the source
Procedure: as §1

human C1s [11] = molecular target: T1, human C1s; assay: SPR, Ab captured; pH 5.8, 1.2 mM Ca; remark: listed apart in the source
Procedure: as §1

human C1s [12] = molecular target: T2, human C1s (human, UniProt P09871 16-688); assay: SPR (Biacore T200, 37C), Ab captured on protein A/G; pH 7.4, 1.2 mM Ca
T2 construct: Analyte in the Biacore assays; also called hC1s; serum-derived human C1s (CompTech)
T2 sequence: T1 sequence
Procedure: as §1

human C1s [13] = molecular target: T2, human C1s; assay: SPR; KD at pH 5.8 (1.2 mM Ca) over KD at pH 7.4 (1.2 mM Ca)
Procedure: as §1

human C1s [14] = molecular target: T2, human C1s; assay: SPR; KD at pH 5.8 (3 uM Ca) over KD at pH 7.4 (1.2 mM Ca)
How it was run: as §2

human C1s [15] = molecular target: T2, human C1s; assay: SPR; KD at pH 5.8 (1.2 mM Ca) over KD at pH 7.4 (1.2 mM Ca); remark: listed apart in the source
How it was run: as §2

human C1s [16] = molecular target: T2, human C1s; assay: SPR; KD at pH 5.8 (3 uM Ca) over KD at pH 7.4 (1.2 mM Ca); remark: listed apart in the source
Procedure: as §1

human C1s [17] = molecular target: T2, human C1s; assay: SPR (Biacore T200, 37C), Ab captured on protein A/G; pH 5.8, 1.2 mM Ca
Procedure: as §1

human C1s [18] = molecular target: T2, human C1s; assay: as above; remark: listed apart in the source
How it was run: as §2

human C1s [19] = molecular target: T2, human C1s; assay: SPR (Biacore T200, 37C), Ab captured on protein A/G; pH 5.8, 3 uM Ca
How it was run: as §2

human C1s [20] = molecular target: T2, human C1s; assay: as above; remark: listed apart in the source
Procedure: as §1

B1: C1_IPN009VH2-SG4GK/IPN009VK3-SK1 (antibody, human IgG4 S228P, kappa)
heavy: not shown
light: QIVLTQSPATLSLSPGERATLSCTASSSVSSSYLHWYQQKPGKAPKLWIYSTSNLASGVPSRFSGSGSGTDYTLTISSLQPEDFATYYCHQYYRLPPITFGQGTKLEIKRTVAAPSVFIFPPSDEQLKSGTASVVCLLNNFYPREAKVQWKVDNALQSGNSQESVTEQDSKDSTYSLSSTLTLSKADYEKHKVYACEVTHQGLSSPVTKSFNRGEC
notes: parent antibody; variable regions as described in WO2016164358; also called IPN009VH2/IPN009VK3; IPN09VH2/IPN09VK3
koff (human C1s [1]): 0.00204 s⁻¹
kon (human C1s [1]): 606000 M⁻¹ s⁻¹
koff (human C1s [2]): 0.00204 s⁻¹
kon (human C1s [2]): 606000 M⁻¹ s⁻¹
koff (human C1s [3]): 0.000298 s⁻¹
kon (human C1s [3]): 362000 M⁻¹ s⁻¹
koff (human C1s [4]): 0.000298 s⁻¹
kon (human C1s [4]): 362000 M⁻¹ s⁻¹
KD 5(+)/7(+) (human C1s [5]): 0.2
koff (human C1s [6]): 0.000298 s⁻¹
kon (human C1s [6]): 362000 M⁻¹ s⁻¹
KD 5(+)/7(+) (human C1s [7]): 0.2
koff (human C1s [8]): 0.000108 s⁻¹
kon (human C1s [8]): 662000 M⁻¹ s⁻¹
KD 5(-)/7(+) (human C1s [9]): 4.1
KD 5(-)/7(+) (human C1s [10]): 4.1
koff (human C1s [11]): 0.000108 s⁻¹
kon (human C1s [11]): 662000 M⁻¹ s⁻¹

B2: C1_IPN009VH2-SG4GK/IPN009VK3-SK1 (antibody, human IgG4 S228P, kappa)
heavy: not shown
light: B1 light
notes: Parent antibody; also called IPN009VH2/IPN009VK3; IPN09VH2/IPN09VK3
koff (human C1s [12]): 0.000298 s⁻¹
kon (human C1s [12]): 362000 M⁻¹ s⁻¹
KD 5(+)/7(+) (human C1s [13]): 0.2
KD 5(-)/7(+) (human C1s [14]): 4.09
KD 5(+)/7(+) (human C1s [15]): 0.2
KD 5(-)/7(+) (human C1s [16]): 4.09
koff (human C1s [17]): 0.000108 s⁻¹
kon (human C1s [17]): 662000 M⁻¹ s⁻¹
koff (human C1s [18]): 0.000108 s⁻¹
kon (human C1s [18]): 662000 M⁻¹ s⁻¹
koff (human C1s [19]): 0.00204 s⁻¹
kon (human C1s [19]): 606000 M⁻¹ s⁻¹
koff (human C1s [20]): 0.00204 s⁻¹
kon (human C1s [20]): 605000 M⁻¹ s⁻¹

Now from value to binder:

koff (human C1s [2]): 0.132 s⁻¹
kon (human C1s [2]): 5.92e+06 M⁻¹ s⁻¹
koff (human C1s [4]): 0.000574 s⁻¹
kon (human C1s [4]): 233000 M⁻¹ s⁻¹
KD 5(+)/7(+) (human C1s [7]): 1.6
KD 5(-)/7(+) (human C1s [10]): 9.1
koff (human C1s [11]): 0.00149 s⁻¹
kon (human C1s [11]): 384000 M⁻¹ s⁻¹
B3: C1_IPN009VH2-SG4GK/IPN93L0024-SK1 (antibody, human IgG4 S228P, kappa)
heavy: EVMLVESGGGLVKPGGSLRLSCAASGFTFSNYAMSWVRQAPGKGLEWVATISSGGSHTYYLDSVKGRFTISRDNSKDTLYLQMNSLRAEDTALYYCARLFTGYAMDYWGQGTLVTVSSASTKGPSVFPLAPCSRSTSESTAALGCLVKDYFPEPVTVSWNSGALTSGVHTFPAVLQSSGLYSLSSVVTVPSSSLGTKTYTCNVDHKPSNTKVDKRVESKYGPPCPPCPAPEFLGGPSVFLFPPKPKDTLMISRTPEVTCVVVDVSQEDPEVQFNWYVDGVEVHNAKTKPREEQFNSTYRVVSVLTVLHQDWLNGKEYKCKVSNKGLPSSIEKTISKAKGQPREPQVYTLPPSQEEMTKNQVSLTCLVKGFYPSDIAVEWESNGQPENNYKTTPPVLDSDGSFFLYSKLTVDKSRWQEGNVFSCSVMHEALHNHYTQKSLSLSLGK
light: B1 light with P96H
notes: VL = IPN009VK3 with P95H (Kabat); also called IPN009VH2/IPN93L0024

Kd (human C1s [2]): 2.58 nM
koff (human C1s [2]): 0.00171 s⁻¹
kon (human C1s [2]): 665000 M⁻¹ s⁻¹
Kd (human C1s [4]): 0.549 nM
koff (human C1s [4]): 0.000236 s⁻¹
kon (human C1s [4]): 430000 M⁻¹ s⁻¹
KD 5(+)/7(+) (human C1s [7]): 0.4
KD 5(-)/7(+) (human C1s [10]): 4.7
Kd (human C1s [11]): 0.222 nM
koff (human C1s [11]): 0.000162 s⁻¹
kon (human C1s [11]): 729000 M⁻¹ s⁻¹
B4: C1_IPN92H0026-SG4GK/IPN009VK3-SK1 (antibody, human IgG4 S228P, kappa, name in Kabat numbering, V domains shown)
VH: EVMLVESGGGLVKPGGSLRLSCAASGFTFSNYAMSWVRQAPGKGLEWVATISSGGSHTYYLDSVKHRFTISRDNSKDTLYLQMNSLRAEDTALYYCARLFTGYAMDYWGQGTLVTVSS
VL: QIVLTQSPATLSLSPGERATLSCTASSSVSSSYLHWYQQKPGKAPKLWIYSTSNLASGVPSRFSGSGSGTDYTLTISSLQPEDFATYYCHQYYRLPPITFGQGTKLEIKR
notes: also called IPN92H0026/IPN009VK3
